The target in this experiment is T1, Gli3C′ΔXhoI (Myc-tagged C-terminal deleted XhoI Gli 3 truncate) (human, UniProt P10071 1-547).
T1 construct: also called Gli3C'XhoI
T1 sequence: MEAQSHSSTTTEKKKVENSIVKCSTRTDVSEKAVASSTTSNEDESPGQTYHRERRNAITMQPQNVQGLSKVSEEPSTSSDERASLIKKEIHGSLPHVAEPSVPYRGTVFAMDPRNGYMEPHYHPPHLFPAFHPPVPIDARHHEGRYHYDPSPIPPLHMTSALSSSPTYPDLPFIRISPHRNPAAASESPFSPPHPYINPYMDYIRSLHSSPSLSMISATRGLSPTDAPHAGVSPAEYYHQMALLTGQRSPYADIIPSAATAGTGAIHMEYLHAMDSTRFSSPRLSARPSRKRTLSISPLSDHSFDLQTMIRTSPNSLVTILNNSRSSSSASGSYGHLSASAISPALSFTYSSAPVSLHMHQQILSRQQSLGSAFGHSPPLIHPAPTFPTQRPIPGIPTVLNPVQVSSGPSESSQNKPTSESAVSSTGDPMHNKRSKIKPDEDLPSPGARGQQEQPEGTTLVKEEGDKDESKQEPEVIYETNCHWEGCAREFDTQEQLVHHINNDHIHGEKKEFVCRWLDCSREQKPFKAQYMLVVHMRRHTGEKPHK
Put plainly: co-immunoprecipitation (anti-Flag IP, anti-Myc blot), transfected cells. As to the method:
Immunoprecipitation and immunoblotting: The assay was performed as previously described ( Liu et al, 1997, Genes Dev. 11:3157-3167). RIB/L17 or COS1 cells were cotransfected with Myc-tagged full-length or deletion derivatives of Gli3 or Gli1 along with a Flag-tagged Smad construct by the DEAE-dextran method. BMP or TGFP stimulation was by cotransfection of an activated BMP or TGFβ receptor and treatment with BMP (2 nM) or TGFβ (500 pM) for 1 hour. Cells were lysed in TNE buffer (10 mM Tris (pH7.8), 150 mM NaCl, 1 mM EDTA, 1% NP40) in the presence of protease inhibitors. Immunoprecipitation was performed by incubation with the M2 anti-Flag antibody (Eastman Kodak) for 1 hour. Immunoprecipitates were separated in an 8% SDS-PAGE and transferred to a PVDF membrane. Inmmunoblotting was carried out by using the 9E10 anti-Myc antibody (ascites), followed by incubation with HRP-conjugated goat anti-mouse antibodies and detected by chemiluminescence (Amersham).

B1: Flag-Smad1 (other, UniProt Q15797 1-465, looked up)
chain: MNVTSLFSFTSPAVKRLLGWKQGDEEEKWAEKAVDALVKKLKKKKGAMEELEKALSCPGQPSNCVTIPRSLDGRLQVSHRKGLPHVIYCRVWRWPDLQSHHELKPLECCEFPFGSKQKEVCINPYHYKRVESPVLPPVLVPRHSEYNPQHSLLAQFRNLGQNEPHMPLNATFPDSFQQPNSHPFPHSPNSSYPNSPGSSSSTYPHSPTSSDPGSPFQMPADTPPPAYLPPEDPMTQDGSQPMDTNMMAPPLPSEINRGDVQAVAYEEPKHWCSIVYYELNNRVGEAFHASSTSVLVDGFTDPSNNKNRFCLGLLSNVNRNSTIENTRRHIGKGVHLYYVGGEVYAECLSDSSIFVQSRNCNYHHGFHPTTVCKIPSGCSLKIFNNQEFAQLLAQSVNHGFETVYELTKMCTIRMSFVKGWGAEYHRQDVTSTPCWIEIHLHGPLQWLDKVLTQMGSPHNPISSVS
notes: not shown: Flag tag
As for B1, the binding result is reported as “no binding”.

For the origin of these results see US20030049246A1 (published 2003).
